Measurements reported in patent publication US20190248877A1 (Hoffmann-La Roche, published 2019).

How the values were obtained:
Experiment in all cases: SPR ProteOn XPR36, biotinylated antigen on NLC chip, Fab as analyte, 25 C
[1] = target: T1, GST huTNC fn5 A1234 BC fn6 B (human, UniProt P24821 984-1798, biotin on the C-terminal avi-tag (BirA, site-specific))
T1 construct: also called Human GST-fused TnC fn5 A1234 BC fn6
T1 sequence: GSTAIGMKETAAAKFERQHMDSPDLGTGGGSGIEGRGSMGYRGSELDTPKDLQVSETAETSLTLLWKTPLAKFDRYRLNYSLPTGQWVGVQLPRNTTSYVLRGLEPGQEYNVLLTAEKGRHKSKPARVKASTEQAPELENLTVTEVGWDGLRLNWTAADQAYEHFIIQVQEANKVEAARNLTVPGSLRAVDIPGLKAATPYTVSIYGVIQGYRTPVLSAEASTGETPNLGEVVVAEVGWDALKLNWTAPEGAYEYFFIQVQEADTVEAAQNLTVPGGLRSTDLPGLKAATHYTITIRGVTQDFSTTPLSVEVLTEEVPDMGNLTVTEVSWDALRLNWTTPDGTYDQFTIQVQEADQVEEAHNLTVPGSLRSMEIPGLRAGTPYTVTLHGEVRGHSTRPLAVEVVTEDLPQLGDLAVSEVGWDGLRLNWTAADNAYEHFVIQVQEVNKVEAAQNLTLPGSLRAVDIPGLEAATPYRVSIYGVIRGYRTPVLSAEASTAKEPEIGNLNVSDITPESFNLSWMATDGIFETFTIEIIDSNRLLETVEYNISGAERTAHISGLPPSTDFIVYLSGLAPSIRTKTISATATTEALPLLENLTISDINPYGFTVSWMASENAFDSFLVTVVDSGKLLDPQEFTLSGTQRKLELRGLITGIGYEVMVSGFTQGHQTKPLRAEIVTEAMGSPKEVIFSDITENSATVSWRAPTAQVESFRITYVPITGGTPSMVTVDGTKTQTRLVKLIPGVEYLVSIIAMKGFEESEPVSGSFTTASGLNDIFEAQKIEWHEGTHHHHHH
Method: (§1) Immobilization of antigens (ligand): Recombinant antigens were diluted with PBST (10 mM phosphate, 150 mM sodium chloride pH 7.4, 0.005% Tween 20) to 10 μg/ml, then injected at 30 μl/minute in vertical orientation. Injection of analytes: For ‘one-shot kinetics’ measurements, injection direction was changed to horizontal orientation, two-fold dilution series of purified Fab were injected simultaneously along separate channels 1-5, with association times of 200 s, and dissociation times of 240 s, respectively. Buffer (PBST) was injected along the sixth channel to provide an “in-line” blank for referencing. Association rate constants (kₒₙ) and dissociation rate constants (koff) were calculated using a simple one-to-one Langmuir binding model in ProteOn Manager v3.1 software by simultaneously fitting the association and dissociation sensorgrams. The equilibrium dissociation constant (KD) was calculated as the ratio koff/kₒₙ.

[2] = target: GST huTNCfn5 mu A124 BC hu fn6 B (human fn5 and fn6, murine extra splice …, biotin on the C-terminal avi-tag (BirA, site-specific))
Method: as §1

[3] = target: T2, GST huTNC fn5 A1234 fn6 B (human, biotin on the C-terminal avi-tag (BirA, site-specific))
T2 chain: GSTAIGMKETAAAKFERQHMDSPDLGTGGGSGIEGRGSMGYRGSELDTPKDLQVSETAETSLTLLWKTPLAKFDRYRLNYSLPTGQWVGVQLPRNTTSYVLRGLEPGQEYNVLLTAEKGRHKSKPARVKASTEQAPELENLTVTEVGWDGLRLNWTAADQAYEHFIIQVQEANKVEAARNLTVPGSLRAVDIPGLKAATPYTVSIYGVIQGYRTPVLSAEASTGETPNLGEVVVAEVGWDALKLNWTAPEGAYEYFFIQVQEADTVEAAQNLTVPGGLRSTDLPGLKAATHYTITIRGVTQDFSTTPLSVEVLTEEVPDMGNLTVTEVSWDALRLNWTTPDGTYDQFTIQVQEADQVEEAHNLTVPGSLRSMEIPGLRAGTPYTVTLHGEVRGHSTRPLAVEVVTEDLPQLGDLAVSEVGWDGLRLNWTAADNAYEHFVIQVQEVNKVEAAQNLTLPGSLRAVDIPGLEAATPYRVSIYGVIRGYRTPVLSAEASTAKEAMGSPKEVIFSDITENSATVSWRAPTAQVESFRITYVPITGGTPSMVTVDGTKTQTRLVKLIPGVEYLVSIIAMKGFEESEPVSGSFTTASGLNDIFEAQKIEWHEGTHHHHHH
Method: as §1

huTNC A4 B = target: T3, huTNC A4 B (human, biotin on the C-terminal avi-tag (BirA, site-specific))
T3 chain: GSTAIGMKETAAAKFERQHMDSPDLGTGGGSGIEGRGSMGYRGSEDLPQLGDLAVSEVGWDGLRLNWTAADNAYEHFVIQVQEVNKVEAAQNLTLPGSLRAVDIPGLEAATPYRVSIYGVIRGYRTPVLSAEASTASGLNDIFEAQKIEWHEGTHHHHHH
Method: as §1

huTNC A1 B = target: T4, huTNC A1 B (human)
T4 chain: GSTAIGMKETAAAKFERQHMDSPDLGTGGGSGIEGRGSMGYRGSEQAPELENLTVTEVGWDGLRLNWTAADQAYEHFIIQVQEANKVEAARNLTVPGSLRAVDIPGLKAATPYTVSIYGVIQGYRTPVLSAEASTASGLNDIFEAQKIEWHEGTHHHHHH
Method: as §1

B1: anti-TnC clone 18D4 Fab fragment (Fab, V domains shown)
VH: QVQLVQSGAEVKKPGSSVKVSCKASGGTFSSYAISWVRQAPGQGLEWMGGIIPIFGTANYAQKFQGRVTITADKSTSTAYMELSSLRSEDTAVYYCAKGNFYGGLDYWGQGTTVTVSS
VL: DIQMTQSPSTLSASVGDRVTITCRASQSISSWLAWYQQKPGKAPKLLIYDASSLESGVPSRFSGSGSGTEFTLTISSLQPDDFATYYCQQNKKFPSGTFGQGTKVEIK
Kd [1]: 4 nM | Kd [2]: 11.2 nM | Kd [3]: 5 nM | Kd (huTNC A4 B): 2 nM | Kd (huTNC A1 B): 5.6 nM
